This note sets out measurements from the supplement of paper PMC11246515.

A short description of this series: total protein half-life in vivo (active degradation + dilution); higher = more stable protein.
Where [1] appears, read: E. coli NCM3722 delta-clpP delta-lon delta-hslV, growth: N-lim chemostat, doubling time 6 h.
Setting [2] is: E. coli NCM3722 delta-clpP, growth: N-lim chemostat, doubling time 6 h.
The mark [3] stands for this setting: E. coli NCM3722 delta-hslV, growth: N-lim chemostat, doubling time 6 h.
Setting [4] is: E. coli NCM3722 delta-lon, growth: N-lim chemostat, doubling time 6 h.
The mark [5] stands for this setting: E. coli NCM3722 delta-smpB, growth: N-lim chemostat, doubling time 6 h.
Setting [6] is: wild type E. coli NCM3722, growth: C-lim chemostat, doubling time 3 h.
Setting [7] is: wild type E. coli NCM3722, growth: C-lim chemostat, doubling time 6 h.
Setting [8] is: wild type E. coli NCM3722, growth: C-lim chemostat, doubling time 12 h.
Setting [9] is: wild type E. coli NCM3722, growth: N-lim chemostat, doubling time 6 h.
[10] abbreviates: wild type E. coli NCM3722, growth: N-lim chemostat, doubling time 12 h.
The mark [11] stands for this setting: wild type E. coli NCM3722, growth: P-lim chemostat, doubling time 6 h.
Setting [12] is: wild type E. coli NCM3722, growth: P-lim chemostat, doubling time 12 h.

± gives the standard deviation of the averaged measurements.

“MSKVLVLKSSILAGYSQSNQLSDYFVEQWREKHSADEITVRDLAANPIPVLDGELVGALRPSDAPLTPRQQEALALSDELIAELKAHDVIVIAAPMYNFNISTQLKNYFDLVARAGVTFRYTENGPEGLVTGKKAIVITSRGGIHKDGPTDLVTPYLSTFLGFIGITDVKFVFAEGIAYGPEMAAKAQSDAKAAIDSIVSA”: the “total protein half-life in vivo” value amounted to 2.22 ± 0.11 h under setting [1]; 1.48 ± 0.24 h under setting [2]; 1.34 ± 0.044 h under setting [3]; 1.5 ± 0.044 h under setting [4]; 1.49 ± 0.15 h under setting [5]; 2.81 ± 0.096 h under setting [6]. Besides, the “total protein half-life in vivo” value runs as follows: under setting [7], 3.39 ± 0.25 h; under setting [8], 5.43 ± 0.92 h; under setting [9], 1.52 ± 0.16 h; under setting [10], 1.85 ± 0.14 h; under setting [11], 4.25 ± 0.14 h; under setting [12], 6.31 ± 0.4 h.

In the case of “MLKIIRAGMYTTVQDGGRHGFRQSGISHCGALDMPALRIANLLVGNDANAPALEITLGQLTVEFETDGWFALTGAGCEARLDDNAVWTGWRLPMKAGQRLTLKRPQHGMRSYLAVAGGIDVPPVMGSCSTDLKVGIGGLEGRLLKDGDRLPIGKSKRDSMEAQGVKQLLWGNRIRALPGPEYHEFDRASQDAFWRSPWQLSSQSNRMGYRLQGQILKRTTDRELLSHGLLPGVVQVPHNGQPIVLMNDAQTTGGYPRIACIIEADMYHLAQIPLGQPIHFVQCSLEEALKARQDQQRYFEQLAWRLHNEN”, the “total protein half-life in vivo” value reads like this: under setting [1], 5.37 ± 0.055 h; under setting [2], 5.3 ± 0.29 h; under setting [3], 5.076 ± 0.012 h; under setting [4], 5.07 ± 0.35 h; under setting [5], 4.88 ± 0.36 h; under setting [6], 3.12 ± 0.1 h. Besides, the “total protein half-life in vivo” value turned out to be 5.73 ± 0.14 h under setting [7]; 10.1 ± 0.82 h under setting [8]; 5.25 ± 0.34 h under setting [9]; 8.94 ± 0.26 h under setting [10]; 5.79 ± 0.12 h under setting [11]; 11.26 ± 0.079 h under setting [12].

For “MSKPFKLNSAFKPSGDQPEAIRRLEEGLEDGLAHQTLLGVTGSGKTFTIANVIADLQRPTMVLAPNKTLAAQLYGEMKEFFPENAVEYFVSYYDYYQPEAYVPSSDTFIEKDASVNEHIEQMRLSATKAMLERRDVVVVASVSAIYGLGDPDLYLKMMLHLTVGMIIDQRAILRRLAELQYARNDQAFQRGTFRVRGEVIDIFPAESDDIALRVELFDEEVERLSLFDPLTGQIVSTIPRFTIYPKTHYVTPRERIVQAMEEIKEELAARRKVLLENNKLLEEQRLTQRTQFDLEMMNELGYCSGIENYSRFLSGRGPGEPPPTLFDYLPADGLLVVDESHVTIPQIGGMYRGDRARKETLVEYGFRLPSALDNRPLKFEEFEALAPQTIYVSATPGNYELEKSGGDVVDQVVRPTGLLDPIIEVRPVATQVDDLLSEIRQRAAINERVLVTTLTKRMAEDLTEYLEEHGERVRYLHSDIDTVERMEIIRDLRLGEFDVLVGINLLREGLDMPEVSLVAILDADKEGFLRSERSLIQTIGRAARNVNGKAILYGDKITPSMAKAIGETERRREKQQKYNEEHGITPQGLNKKVVDILALGQNIAKTKAKGRGKSRPIVEPDNVPMDMSPKALQQKIHELEGLMMQHAQNLEFEEAAQIRDQLHQLRELFIAAS [P0A8F8]”, the “total protein half-life in vivo” value under setting [1] is 5.26 ± 0.16 h; the “total protein half-life in vivo” value under setting [2] came to 4.561 ± 0.016 h; the “total protein half-life in vivo” value under setting [3] stood at 2.99 ± 0.055 h; the “total protein half-life in vivo” value under setting [4] worked out at 3.39 ± 0.18 h; the “total protein half-life in vivo” value under setting [5] turned out to be 2.85 ± 0.065 h; the “total protein half-life in vivo” value under setting [6] came to 2.44 ± 0.18 h. The “total protein half-life in vivo” value by setting is: under setting [7], 4.02 ± 0.073 h; under setting [8], 6.348 ± 0.01 h; under setting [9], 2.96 ± 0.15 h; under setting [10], 4.85 ± 0.78 h; under setting [11], 3.67 ± 0.054 h; under setting [12], 5.85 ± 0.49 h.

In the case of P0AAI3, the “total protein half-life in vivo” value under setting [1] came to 4.9 ± 0.24 h; the “total protein half-life in vivo” value under setting [2] came out at 5.097 ± 0.043 h; the “total protein half-life in vivo” value under setting [3] was 4.76 ± 0.23 h; the “total protein half-life in vivo” value under setting [4] is 4.88 ± 0.19 h; the “total protein half-life in vivo” value under setting [5] is 4.46 ± 0.14 h; the “total protein half-life in vivo” value under setting [6] came out at 3.11 ± 0.11 h. Moreover, the “total protein half-life in vivo” value reads like this: under setting [7], 5.51 ± 0.52 h; under setting [8], 10.8 ± 0.55 h; under setting [9], 4.53 ± 0.27 h; under setting [10], 8.44 ± 0.27 h; under setting [11], 6.15 ± 0.37 h; under setting [12], 10.2 ± 0.18 h.

Take “MLAKRIIPCLDVRDGQVVKGVQFRNHEIIGDIVPLAKRYAEEGADELVFYDITASSDGRVVDKSWVSRVAEVIDIPFCVAGGIKSLEDAAKILSFGADKISINSPALADPTLITRLADRFGVQCIVVGIDTWYDAETGKYHVNQYTGDESRTRVTQWETLDWVQEVQKRGAGEIVLNMMNQDGVRNGYDLEQLKKVREVCHVPLIASGGAGTMEHFLEAFRDADVDGALAASVFHKQIINIGELKAYLATQGVEIRIC”: the “total protein half-life in vivo” value by setting is: under setting [1], 4.98 ± 0.68 h; under setting [2], 4.15 ± 0.38 h; under setting [3], 4.45 ± 0.13 h; under setting [4], 4.83 ± 0.12 h; under setting [5], 4.317 ± 0.0095 h; under setting [6], 2.97 ± 0.2 h. The “total protein half-life in vivo” value turned out to be 5.53 ± 0.17 h under setting [7]; 9.44 ± 0.28 h under setting [8]; 4.34 ± 0.0084 h under setting [9]; 7.26 ± 0.56 h under setting [10]; 5.64 ± 0.13 h under setting [11]; 11.6 ± 0.42 h under setting [12].

As to “MATNLRGVMAALLTPFDQQQALDKASLRRLVQFNIQQGIDGLYVGGSTGEAFVQSLSEREQVLEIVAEEAKGKIKLIAHVGCVSTAESQQLAASAKRYGFDAVSAVTPFYYPFSFEEHCDHYRAIIDSADGLPMVVYNIPALSGVKLTLDQINTLVTLPGVGALKQTSGDLYQMEQIRREHPDLVLYNGYDEIFASGLLAGADGGIGSTYNIMGWRYQGIVKALKEGDIQTAQKLQTECNKVIDLLIKTGVFRGLKTVLHYMDVVSVPLCRKPFGPVDEKYLPELKALAQQLMQERG [P0A6L4]”, the “total protein half-life in vivo” value came out at 2.77 ± 0.23 h under setting [1]; 1.88 ± 0.19 h under setting [2]; 3.01 h under setting [3]; 2.66 h under setting [4]; 1.84 ± 0.085 h under setting [5]; 2.81 ± 0.23 h under setting [6]. Besides, the “total protein half-life in vivo” value came out at 3.81 ± 0.35 h under setting [7]; 5.83 ± 1.4 h under setting [8]; 2.28 h under setting [9]; 2.1 ± 0.3 h under setting [10]; 4.43 ± 0.18 h under setting [11]; 8.79 h under setting [12].

Turning to “MEMTSAFTLNVRLDNIAVITIDVPGEKMNTLKAEFASQVRAIIKQLRENKELRGVVFVSAKPDNFIAGADINMIGNCKTAQEAEALARQGQQLMAEIHALPIQVIAAIHGACLGGGLELALACHGRVCTDDPKTVLGLPEVQLGLLPGSGGTQRLPRLIGVSTALEMILTGKQLRAKQALKLGLVDDVVPHSILLEAAVELAKKERPSSRPLPVRERILAGPLGRALLFKMVGKKTEHKTQGNYPATERILEVVETGLAQGTSSGYDAEARAFGELAMTPQSQALRSIFFASTDVKKDPGSDAPPAPLNSVGILGGGLMGGGIAYVTACKAGIPVRIKDINPQGINHALKYSWDQLEGKVRRRHLKASERDKQLALISGTTDYRGFAHRDLIIEAVFENLELKQQMVAEVEQNCAAHTIFASNTSSLPIGDIAAHATRPEQVIGLHFFSPVEKMPLVEIIPHAGTSAQTIATTVKLAKKQGKTPIVVRDKAGFYVNRILAPYINEAIRMLTQGERVEHIDAALVKFGFPVGPIQLLDEVGIDTGTKIIPVLEAAYGERFSAPANVVSSILNDDRKGRKNGRGFYLYGQKGRKSKKQVDPAIYPLIGTQGQGRISAPQVAERCVMLMLNEAVRCVDEQVIRSVRDGDIGAVFGIGFPPFLGGPFRYIDSLGAGEVVAIMQRLATQYGSRFTPCERLVEMGARGESFWKTTATDLQ”, the “total protein half-life in vivo” value under setting [1] was found to be 6.37 ± 0.25 h; the “total protein half-life in vivo” value under setting [2] is 6.427 ± 0.028 h; the “total protein half-life in vivo” value under setting [3] was determined as 6.27 ± 0.24 h; the “total protein half-life in vivo” value under setting [4] worked out at 6.41 ± 0.81 h; the “total protein half-life in vivo” value under setting [5] is 5.89 ± 0.35 h; the “total protein half-life in vivo” value under setting [6] came out at 2.94 ± 0.22 h. Also, the “total protein half-life in vivo” value was determined as 6.2 ± 0.16 h under setting [7]; 12 ± 0.15 h under setting [8]; 5.986 ± 0.037 h under setting [9]; 13.5 ± 2.2 h under setting [10]; 6.1 ± 0.18 h under setting [11]; 12.3 ± 0.21 h under setting [12].
